Numbered stars: 1 amine (or outer) side, 2 acyl side, 3 side chain; on linkers, the order of the positions; unused ones are H or OH. Bridge positions count the residues as written; N and C are the ends. Square brackets hold non-standard residues; d marks the D form. * marks the point of attachment. KCOpipzaa = N6-(4-(carboxymethyl)piperazine-1-carbonyl)-L-lysine, O=C(NCCCC[C@H](N[*:1])C(=O)[*:2])N1CCN(CC(=O)[*:3])CC1; X8 = 4‑(carboxymethyl)piperazine‑1‑carbonyl, O=C(O)CN1CCN(C(=O)*)CC1; Phe(4-COOH) = N[C@@H](Cc1ccc(C(=O)O)cc1)C(=O)O; Bip = N[C@@H](Cc1ccc(-c2ccccc2)cc1)C(=O)O; Phe(4-F) = N[C@@H](Cc1ccc(F)cc1)C(=O)O; 4Pal = N[C@@H](Cc1ccncc1)C(=O)O; Cit = NC(=O)NCCC[C@H](N)C(=O)O; βAla = NCCC(=O)O
Legend:
BMP7 = target: T1, BMP7 (Homo sapiens, UniProt P18075); test: BMP7 signal transduction inhibitory activity: SMAD1 phosphorylation by BMP7 stimulus, A549 cells; assay type: cell-based; conditions: inhibition of SMAD1 phosphorylation by BMP7 stimulus, AlphaLISA, A549 cells; class by peptide concentration zone
T1 sequence (P18075 293-431): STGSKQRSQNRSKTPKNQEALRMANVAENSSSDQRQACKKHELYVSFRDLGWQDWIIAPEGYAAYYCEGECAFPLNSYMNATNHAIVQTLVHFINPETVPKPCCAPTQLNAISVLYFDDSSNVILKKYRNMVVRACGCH
Protocol: In the present Example, BMP7 signal transduction inhibitory activity of each peptide consisting of an amino acid sequence set forth in any of SEQ ID NOs: 5 to 240 and 243 to 421 synthesized in Example 10 was verified by phosphorylation of SMAD1 caused by BMP7 stimulus. The evaluation was performed using 10 nM of BMP7 instead of BMP 4. Regarding SEQ ID NOs: 5 to 240, the concentrations of the peptides synthesized in the same manner as in Example 2 (shown as 2 in the row of Synthesis) were 1 nM, 10 nM, and 100 nM, and the concentrations of the peptides synthesized in the same manner as in Example 1 (shown as 1 in the row of Synthesis) were 10 nM, 100 nM, and 1,000 nM, similarly with Example 11. […] Regarding SEQ ID NOs: 243 to 273 and SEQ ID NOs: 299 to 321, the test was performed at the concentrations (10, 100, 1,000 nM) described in Table 6. […] Regarding SEQ ID NOs: 274 to 298, the test was performed at the concentrations (100, 300, 1,000 nM) described in Table 6. […] Regarding SEQ ID NOs: 322 to 370 and SEQ ID NOs: 393 to 421, the test was performed at the concentrations (1, 10, 100 nM). […] Regarding SEQ ID NOs: 371 to 391, the test was performed at the concentrations (10, 30, 90 nM). […] The evaluation tests of the signal transduction inhibitory activities of SEQ ID NOs: 87, 177, and 181 are as follows. Specifically, the inhibitory activity of BMP4 was evaluated in the same manner as in Example 11 that used A549 cells. Eight concentrations of the peptides were used at a common ratio of 1/3 starting from 2 nM. The inhibitory activity of BMP7 was evaluated in the same manner as in Example 12. Eight concentrations of the peptides were used at a common ratio of 1/3 starting from 100 nM. Note that recombinant Human Noggin Protein (R&D) as a positive control was used at the same concentration as that of the peptide. […] The inhibitory activity of BMP7 was evaluated using eight concentrations of the peptides at a common ratio of 1/3 starting from 1,000 nM in the same manner as in Example 12.

BMP4 = target: T2, BMP4 (Homo sapiens, UniProt P12644); test: BMP4 signal transduction inhibitory activity: SMAD1 phosphorylation by BMP4 stimulus, AlphaLISA SureFire, A549 cells; assay type: cell-based; conditions: inhibition of SMAD1 phosphorylation by BMP4 stimulus, AlphaLISA, A549 cells; class by peptide concentration zone
T2 sequence (P12644 293-408): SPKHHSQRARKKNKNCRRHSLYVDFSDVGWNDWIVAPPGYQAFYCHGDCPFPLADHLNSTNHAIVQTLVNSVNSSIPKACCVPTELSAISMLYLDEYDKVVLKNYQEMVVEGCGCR

| Substance | aLISA BMP7 (BMP7) | aLISA BMP4 (BMP4) |
| --- | --- | --- |
| 50 (Ac-ARVYVDR[Bip]PYP[Bip]Y[Phe(4-COOH)][Phe(4-COOH)]SC[βAla]K(OCOmPEG10000)-NH2; thioether (positions not given here); not fully specified (bridges)) [compound 50] | B (showed less than 50% of inhibitory activity in 1 nM-addition zone and showed 50% or more of inhibitory activity in 10 nM-addition zone) | D (showed inhibitory activity of less than 50% in 2 nM-addition zone) |
| 53 (Ac-ERVYVDR[Bip]PYP[Bip]Y[Phe(4-COOH)][Phe(4-COOH)]SCG-NH2; thioether (positions not given here); not fully specified (bridges)) [compound 53] | ND (the inhibitory activity was less than 30% at the maximum concentration evaluated) | A (showed an inhibitory activity of 50% or more in a zone to which the peptide was added to in an amount of 0.2 nM) |
| 57 (Ac-ARVYVDK(X8)[Bip]PYP[Bip]Y[Phe(4-COOH)][Phe(4-COOH)]SCG-NH2; thioether (positions not given here); not fully specified (bridges)) [compound 57] | C (showed less than 50% of inhibitory activity in 10 nM-addition zone and showed 50% or more of inhibitory activity in 100 nM-addition zone) | C (showed an inhibitory activity of less than 50% in 0.2 nM-addition zone and showed an inhibitory activity of 50% or more in 2 nM-addition zone were defined as B or C) |
| 58 (Ac-ARVYVD[Cit][Bip]PYP[Bip]Y[Phe(4-COOH)][Phe(4-COOH)]SCG-NH2; thioether (positions not given here); not fully specified (bridges)) [compound 58] | C (showed less than 50% of inhibitory activity in 10 nM-addition zone and showed 50% or more of inhibitory activity in 100 nM-addition zone) | A (showed an inhibitory activity of 50% or more in a zone to which the peptide was added to in an amount of 0.2 nM) |
| 59 (Ac-AK(X8)VYVDR[Bip]PYP[Bip][Phe(4-F)][Phe(4-COOH)][Phe(4-COOH)]SCG-NH2; thioether (positions not given here); not fully specified (bridges)) [compound 59] | C (showed less than 50% of inhibitory activity in 10 nM-addition zone and showed 50% or more of inhibitory activity in 100 nM-addition zone) | A (showed an inhibitory activity of 50% or more in a zone to which the peptide was added to in an amount of 0.2 nM) |
| 62 (Ac-A[KCOpipzaa]VYVD[KCOpipzaa][Bip]PYP[Bip][4Pal][Phe(4-COOH)][Phe(4-COOH)]SCG-NH2; thioether (positions not given here); not fully specified (bridges)) [compound 62] | ND (the inhibitory activity was less than 30% at the maximum concentration evaluated) | D (showed inhibitory activity of less than 50% in 2 nM-addition zone) |
| 63 (Ac-E[KCOpipzaa]VYVDR[Bip]PYP[Bip]Y[Phe(4-COOH)][Phe(4-COOH)]SCG-NH2; thioether (positions not given here); not fully specified (bridges)) [compound 63] | C (showed less than 50% of inhibitory activity in 10 nM-addition zone and showed 50% or more of inhibitory activity in 100 nM-addition zone) | A (showed an inhibitory activity of 50% or more in a zone to which the peptide was added to in an amount of 0.2 nM) |
| 64 (Ac-E[KCOpipzaa]VYVD[KCOpipzaa][Bip]PYP[Bip]Y[Phe(4-COOH)][Phe(4-COOH)]SCG-NH2; thioether (positions not given here); not fully specified (bridges)) [compound 64] | D (showed less than 50% of inhibitory activity in 100 nM-addition zone) | C (showed an inhibitory activity of less than 50% in 0.2 nM-addition zone and showed an inhibitory activity of 50% or more in 2 nM-addition zone were defined as B or C) |
| 65 (Ac-E[KCOpipzaa]VYVDR[Bip]PYP[Bip][Phe(4-F)][Phe(4-COOH)][Phe(4-COOH)]SCG-NH2; thioether (positions not given here); not fully specified (bridges)) [compound 65] | C (showed less than 50% of inhibitory activity in 10 nM-addition zone and showed 50% or more of inhibitory activity in 100 nM-addition zone) | A (showed an inhibitory activity of 50% or more in a zone to which the peptide was added to in an amount of 0.2 nM) |
| 68 ({CH2CO}-E[KCOpipzaa]VYVD[KCOpipzaa][Bip]PYP[Bip][4Pal][Phe(4-COOH)][Phe(4-COOH)]SCG-NH2; thioether N-17; not fully specified) [compound 68] | ND (the inhibitory activity was less than 30% at the maximum concentration evaluated) | D (showed inhibitory activity of less than 50% in 2 nM-addition zone) |
| 70 ({CH2CO}-ARVYVDK[Bip]PYP[Bip]Y[Phe(4-COOH)][Phe(4-COOH)]SCG-NH2; thioether N-17; not fully specified) [compound 70] | C (showed less than 50% of inhibitory activity in 10 nM-addition zone and showed 50% or more of inhibitory activity in 100 nM-addition zone) | A (showed an inhibitory activity of 50% or more in a zone to which the peptide was added to in an amount of 0.2 nM) |
| 71 ({CH2CO}-ERVYVDR[Bip]PYP[Bip][Phe(4-F)][Phe(4-COOH)][Phe(4-COOH)]SCG-NH2; thioether N-17; not fully specified) [compound 71] | C (showed less than 50% of inhibitory activity in 10 nM-addition zone and showed 50% or more of inhibitory activity in 100 nM-addition zone) | A (showed an inhibitory activity of 50% or more in a zone to which the peptide was added to in an amount of 0.2 nM) |
| 72 ({CH2CO}-ERVYVDR[Bip]PYP[Bip][Phe(4-F)][Phe(4-COOH)][4Pal]SCG-NH2; thioether N-17; not fully specified) [compound 72] | C (showed less than 50% of inhibitory activity in 10 nM-addition zone and showed 50% or more of inhibitory activity in 100 nM-addition zone) | A (showed an inhibitory activity of 50% or more in a zone to which the peptide was added to in an amount of 0.2 nM) |
| 76 ({CH2CO}-E[KCOpipzaa]VYV[KCOpipzaa][KCOpipzaa][Bip]PYP[Bip][Phe(4-F)][Phe(4-COOH)][4Pal]SCG-NH2; thioether N-17; not fully specified) [compound 76] | C (showed less than 50% of inhibitory activity in 10 nM-addition zone and showed 50% or more of inhibitory activity in 100 nM-addition zone) | C (showed an inhibitory activity of less than 50% in 0.2 nM-addition zone and showed an inhibitory activity of 50% or more in 2 nM-addition zone were defined as B or C) |
| 77 ({CH2CO}-ERVYVDR[Bip][KCOpipzaa]YP[Bip][Phe(4-F)][Phe(4-COOH)][Phe(4-COOH)]SCG-NH2; thioether N-17; not fully specified) [compound 77] | C (showed less than 50% of inhibitory activity in 10 nM-addition zone and showed 50% or more of inhibitory activity in 100 nM-addition zone) | A (showed an inhibitory activity of 50% or more in a zone to which the peptide was added to in an amount of 0.2 nM) |
| 78 ({CH2CO}-ERVYVDR[Bip][KCOpipzaa]YP[Bip][Phe(4-F)][Phe(4-COOH)][4Pal]SCG-NH2; thioether N-17; not fully specified) [compound 78] | C (showed less than 50% of inhibitory activity in 10 nM-addition zone and showed 50% or more of inhibitory activity in 100 nM-addition zone) | A (showed an inhibitory activity of 50% or more in a zone to which the peptide was added to in an amount of 0.2 nM) |

From patent US20250361274A1, “PEPTIDE AND PEPTIDE-CONTAINING AGENT” (PEPTIDREAM INC., priority 2022, published 2025)
